Assay results published in the supplement of paper PMC10126150.
± gives the standard deviation of the averaged measurements.

Tested on: ATP
Assay: switch fluorescence ratio, 500 uM ATP over buffer (Cy3 cluster intensity, sum of 5 cycles each) (fold (ratio)); higher = stronger signal-on switching upon ATP binding; sequences stand for … in TCGTCGGCAGCGTCAGATGTGTATAAGAGACAGTTTTTTTTTTTTTTTTTTTTTTTTT…TC
Conditions: aptamer strand: ATP DNA aptamer (quencher-CACCTGGGGGAGTATTGCGGAGGAAGG + anchor), 100 nM annealed; ATP concentration: 500 uM
How it was run: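 Five buffer/ATP imaging cycles were run on Cy3-labelled switching-strand clusters on a modified Illumina MiSeq flow-cell, with NaOH stripping and re-annealing between cycles. In each cycle, clusters annealed to 100 nM quencher-labelled ATP aptamer were imaged in selection buffer, then after 15 min with 500 uM ATP at 22 °C. Per cluster, the fluorescence ratio is summed target-cycle over summed buffer-cycle Cy3 intensity, averaged per switch-domain sequence. Only clusters within 100-1000 RFU were kept.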
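Note: ATP exposure 15 min at 22 °C before imaging.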

| Sequence | switch fluorescence ratio |
| --- | --- |
| TTTCTTAGAG | 0.992 ± 0.038 |
| TTTCTTAGGT | 1.03 ± 0.014 |
| TTTCTTAGTT | 1.04 ± 0.017 |
| TTTCTTCGCT | 1.01 ± 0.046 |
| TTTCTTCTCA | 1.01 ± 0.024 |
| TTTCTTTATC | 0.974 ± 0.017 |
| TTTCTTTCTC | 1.02 ± 0.026 |
| TTTCTTTTTT | 1 ± 0.024 |
| TTTGAAAACG | 1.02 ± 0.033 |
| TTTGAAAGAA | 0.9779 ± 0.0054 |
| TTTGAAAGTT | 1.01 ± 0.015 |
| TTTGAAATAC | 2.2 ± 0.025 |
| TTTGAACGCT | 1.06 ± 0.015 |
| TTTGAAGACA | 0.991 ± 0.028 |
| TTTGAAGACT | 0.98 ± 0.028 |
| TTTGAAGGAT | 1.29 ± 0.35 |
| TTTGAAGTCA | 1 ± 0.022 |
| TTTGAATTCG | 1.009 ± 0.0022 |
| TTTGAATTTT | 0.998 ± 0.024 |
| TTTGACAGGA | 1.06 ± 0.057 |
| TTTGACATGT | 0.975 ± 0.038 |
| TTTGACGCGC | 1.16 ± 0.13 |
| TTTGACGGGA | 1.01 ± 0.012 |
| TTTGACGGTA | 1.09 ± 0.016 |
| TTTGACTAGG | 1.01 ± 0.038 |
| TTTGACTTCA | 1.03 ± 0.018 |

| Sequence | switch fluorescence ratio |
| --- | --- |
| TTTGACTTTT | 0.994 ± 0.028 |
| TTTGAGAAGC | 0.992 ± 0.026 |
| TTTGAGGAAG | 1.01 ± 0.022 |
| TTTGAGGACT | 0.992 ± 0.025 |
| TTTGAGGCCA | 1.04 ± 0.061 |
| TTTGAGGGGG | 1.01 ± 0.066 |
| TTTGAGGTGA | 1.04 ± 0.07 |
| TTTGAGTCGG | 0.957 ± 0.0034 |
| TTTGAGTTGT | 0.962 ± 0.035 |
| TTTGATAGT | 1 ± 0.021 |
| TTTGATATTT | 1.11 ± 0.22 |
| TTTGATCAAG | 1.021 ± 0.008 |
| TTTGATCGGA | 0.965 ± 0.062 |
| TTTGATCTAT | 0.989 ± 0.028 |
| TTTGATCTCG | 1.0054 ± 0.00071 |
| TTTGATCTGC | 0.961 ± 0.031 |
| TTTGATGATA | 0.981 ± 0.014 |
| TTTGATGCAT | 1.03 ± 0.026 |
| TTTGATGCGT | 1.018 ± 0.0095 |
| TTTGATTTGC | 0.961 ± 0.042 |
| TTTGATTTTC | 0.976 ± 0.049 |
| TTTGCAAGGG | 1.81 ± 1.2 |
| TTTGCATCTA | 1.0306 ± 0.00072 |
| TTTGCCAGTT | 0.9847 ± 0.0019 |
| TTTGCCCCCT | 1.04 ± 0.051 |
| TTTGCCCTGG | 1.1 ± 0.08 |

| Sequence | switch fluorescence ratio |
| --- | --- |
| TTTGCCGGG | 1.02 ± 0.0019 |
| TTTGCCGGGA | 1.01 ± 0.019 |
| TTTGCCGGGT | 0.998 ± 0.046 |
| TTTGCCTTTT | 1 ± 0.042 |
| TTTGCGAGGG | 1.01 ± 0.018 |
| TTTGCGCTTT | 1.1 ± 0.084 |
| TTTGCGGAAA | 1.01 ± 0.023 |
| TTTGCGGTCA | 1.021 ± 0.0091 |
| TTTGCGTTCA | 1.02 ± 0.078 |
| TTTGCTACTG | 1.052 ± 0.0096 |
| TTTGCTCGGG | 1.003 ± 0.002 |
| TTTGCTGCGG | 1.03 ± 0.041 |
| TTTGCTGGCG | 0.935 ± 0.024 |
| TTTGCTTGGT | 0.994 ± 0.03 |
| TTTGGAAAAA | 0.996 ± 0.032 |
| TTTGGAAAAC | 0.9853 ± 0.0027 |
| TTTGGAAATT | 1.43 ± 0.61 |
| TTTGGAAGCC | 1 ± 0.041 |
| TTTGGAATAG | 1.06 ± 0.045 |
| TTTGGAATAT | 1.04 ± 0.013 |
| TTTGGACAGT | 0.978 ± 0.03 |
| TTTGGAGGTG | 1.04 ± 0.024 |
| TTTGGATGCG | 1.01 ± 0.077 |
| TTTGGATTGG | 0.967 ± 0.023 |
| TTTGGATTTA | 1.03 ± 0.057 |
